How the values were obtained:
[1] = target: T1, full-length human TIGIT on CHO-K1 cells (CHO-K1 human TIGIT) (human, UniProt Q495A1 22-244); test: FACS, CHO-K1 human TIGIT medium expression strain
T1 construct: NCBI XP_024309156.1; entry includes the signal peptide; also called high expression strain 1D2; medium expression strain 2D10
T1 sequence: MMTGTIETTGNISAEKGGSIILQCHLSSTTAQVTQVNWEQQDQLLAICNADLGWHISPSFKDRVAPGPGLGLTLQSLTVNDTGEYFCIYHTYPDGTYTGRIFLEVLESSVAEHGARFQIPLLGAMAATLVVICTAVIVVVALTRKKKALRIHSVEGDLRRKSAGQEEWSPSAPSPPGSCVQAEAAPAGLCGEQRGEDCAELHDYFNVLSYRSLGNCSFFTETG
Protocol: (§1) The collected cells were washed once with PBS (Hyclone, Cat NO. SH30256), resuspended to 2×10⁵/50 μL with 1% BSA-PBS. The antibodies were diluted to 80 nM with 1% BSA-PBS (diluted by 3-fold serial dilution for 12 concentration points). The 50 μL cells were then mixed with 50 μL diluted antibodies, and then incubated at 4° C. for 60 minutes. […] After washing twice with PBS, the cell samples were resuspended with 1% BSA-PBS, 100 μL/well and then analyzed by flow cytometry (BD, Canto II).

[2] = target: T1, full-length human TIGIT on CHO-K1 cells …; test: FACS, low expression strain
Protocol: as §1, with “CAT #SH30256),” for “Cat NO. SH30256),”, “II). […] [0298] (c) The effect of anti-TIGIT chimeric antibodies blocking the interaction between Bio-CD155-His and CHO-K1 human TIGIT high expression cell strains detected by FACS” for “II).”

[3] = target: T2, human TIGIT ECD-mFc (fusion protein of extracellular domain of human TIGIT and mouse IgG2a Fc fragment) (human); test: FACS, competition: hTIGIT ECD-mFc to CHO-K1 CD155
T2 chain: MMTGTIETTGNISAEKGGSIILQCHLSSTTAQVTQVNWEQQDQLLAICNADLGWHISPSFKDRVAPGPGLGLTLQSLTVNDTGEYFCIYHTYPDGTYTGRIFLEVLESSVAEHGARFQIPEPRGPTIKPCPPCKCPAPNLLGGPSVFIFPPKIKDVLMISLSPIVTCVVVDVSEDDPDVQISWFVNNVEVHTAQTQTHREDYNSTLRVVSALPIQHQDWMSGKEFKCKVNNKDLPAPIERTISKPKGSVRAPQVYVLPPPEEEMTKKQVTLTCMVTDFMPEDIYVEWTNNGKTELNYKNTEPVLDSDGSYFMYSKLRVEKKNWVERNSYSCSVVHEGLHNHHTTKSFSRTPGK
Protocol: The collected CHO-K1 CD155 cells were washed once with PBS (Hyclone, CAT #SH30256) and resuspended to 2×10⁵/40 μL with 1% BSA-PBS. The tested antibodies were diluted to 600 nM with 1% BSA-PBS (diluted by 2.5-fold serial dilution for 12 concentration points). The TIGIT ECD-mFc was diluted with 1% BSA-PBS to 6 μg/mL. The 40 μL cells were then mixed with 40 μL diluted antibodies and 40 μL diluted TIGIT ECD-mFc, and then incubated at 4° C. for 60 minutes. […] The cell samples were washed twice with PBS, resuspended to 100 μL/well with 1% BSA-PBS and then analyzed by flow cytometry (BD, Canto II).

[4] = target: T1, full-length human TIGIT on CHO-K1 cells …; test: competition FACS; blocked: Bio-CD155-His binding to CHO-K1 human TIGIT cells
Protocol: The collected cells were washed once with PBS (Hyclone, SH30256), resuspended to 2×10⁵/40 μL with 1% BSA-PBS. The antibodies were diluted to 210 nM with 1% BSA-PBS (diluted by 3-fold serial dilution for 12 concentration points). […] The 40 μL cells were then mixed with 40 μL diluted antibodies and 40 μL diluted Bio-CD155-His, and then incubated at 4° C. for 60 minutes. The cells were washed twice with PBS, resuspended with APC labeled streptavidin (dilution ratio 1:1700, Biolegend, 405243), 100 μL/well, and incubated at 4° C. for 40 minutes. The cell samples were washed twice with PBS, resuspended with 1% BSA-PBS (100 μL/well) and then analyzed by flow cytometry (BD, Canto II).

B1: RG6058-hIgG1 (antibody, V domains shown)
VH: EVQLQQSGPGLVKPSQTLSLTCAISGDSVSSNSAAWNWIRQSPSRGLEWLGKTYYRFKWYSDYAVSVKGRITINPDTSKNQFSLQLNSVTPEDTAVFYCTRESTTYDLLAGPFDYWGQGTLVTVSS
VL: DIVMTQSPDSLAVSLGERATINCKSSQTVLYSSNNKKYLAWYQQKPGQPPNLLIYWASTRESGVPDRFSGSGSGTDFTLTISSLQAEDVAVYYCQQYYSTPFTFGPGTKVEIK
notes: human IgG1 format by its name; also called Roche RG6058; control antibody RG6058
For B1, the “EC50 (read off the curve)” value [1] was roughly 0.4 nM, the EC50 [2] was 0.495 nM and the IC50 [3] was 0.566 nM. For the same binder, the “IC50 (read off the curve)” value [4] was roughly 0.3 nM.

From patent publication US20240343803A1 (SHANDONG SIMCERE BIOPHARMACEUTICAL, published 2024)
